The record followed here is IntAct's records for PubMed 22921914.

Sequences and labels used below:
B1: Protein SCARECROW (Arabidopsis thaliana (Mouse-ear cress)), Q9M384 (parent)
chain: MAESGDFNGGQPPPHSPLRTTSSGSSSSNNRGPPPPPPPPLVMVRKRLASEMSSNPDYNNSSRPPRRVSHLLDSNYNTVTPQQPPSLTAAATVSSQPNPPLSVCGFSGLPVFPSDRGGRNVMMSVQPMDQDSSSSSASPTVWVDAIIRDLIHSSTSVSIPQLIQNVRDIIFPCNPNLGALLEYRLRSLMLLDPSSSSDPSPQTFEPLYQISNNPSPPQQQQQHQQQQQQHKPPPPPIQQQERENSSTDAPPQPETVTATVPAVQTNTAEALRERKEEIKRQKQDEEGLHLLTLLLQCAEAVSADNLEEANKLLLEISQLSTPYGTSAQRVAAYFSEAMSARLLNSCLGIYAALPSRWMPQTHSLKMVSAFQVFNGISPLVKFSHFTANQAIQEAFEKEDSVHIIDLDIMQGLQWPGLFHILASRPGGPPHVRLTGLGTSMEALQATGKRLSDFADKLGLPFEFCPLAEKVGNLDTERLNVRKREAVAVHWLQHSLYDVTGSDAHTLWLLQRLAPKVVTVVEQDLSHAGSFLGRFVEAIHYYSALFDSLGASYGEESEERHVVEQQLLSKEIRNVLAVGGPSRSGEVKFESWREKMQQCGFKGISLAGNAATQATLLLGMFPSDGYTLVDDNGTLKLGWKDLSLLTASAWTPRS
partner: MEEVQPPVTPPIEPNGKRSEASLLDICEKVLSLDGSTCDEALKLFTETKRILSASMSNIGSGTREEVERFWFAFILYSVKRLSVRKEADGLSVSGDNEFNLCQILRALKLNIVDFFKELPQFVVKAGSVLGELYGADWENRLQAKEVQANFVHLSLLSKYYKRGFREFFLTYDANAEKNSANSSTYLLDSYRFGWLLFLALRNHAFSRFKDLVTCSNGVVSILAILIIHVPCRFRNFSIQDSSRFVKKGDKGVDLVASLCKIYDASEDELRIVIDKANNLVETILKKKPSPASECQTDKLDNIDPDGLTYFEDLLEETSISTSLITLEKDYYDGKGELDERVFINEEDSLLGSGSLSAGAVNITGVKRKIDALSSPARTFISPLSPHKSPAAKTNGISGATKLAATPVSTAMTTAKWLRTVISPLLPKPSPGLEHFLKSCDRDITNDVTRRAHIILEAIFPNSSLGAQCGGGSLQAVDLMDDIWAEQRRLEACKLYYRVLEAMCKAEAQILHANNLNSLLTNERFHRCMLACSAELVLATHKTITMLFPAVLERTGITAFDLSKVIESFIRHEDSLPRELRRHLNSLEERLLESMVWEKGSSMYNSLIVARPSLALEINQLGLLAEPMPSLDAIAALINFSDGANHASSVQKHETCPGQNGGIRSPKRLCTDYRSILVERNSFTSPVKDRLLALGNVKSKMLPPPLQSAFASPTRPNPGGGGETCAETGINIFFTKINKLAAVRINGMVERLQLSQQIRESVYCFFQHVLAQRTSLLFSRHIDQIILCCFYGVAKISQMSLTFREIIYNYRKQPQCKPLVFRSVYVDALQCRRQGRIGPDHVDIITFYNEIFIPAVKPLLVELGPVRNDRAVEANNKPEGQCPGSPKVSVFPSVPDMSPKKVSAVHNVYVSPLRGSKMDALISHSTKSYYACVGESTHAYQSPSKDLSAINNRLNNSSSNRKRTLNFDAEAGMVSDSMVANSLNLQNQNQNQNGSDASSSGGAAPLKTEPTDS

The test covers variants of B1. The following applies: with rbr1_arath RBR1, Q9LKZ3.
With L295A;E299A, the “effect of a mutation on the interaction” value is “disrupting interaction strength”.
